Experiment in all cases: SPR
Background: SPR reads the build-up and loss of mass on a sensor chip optically.

Experiment [1] has as its target human IL-2Rβ-Fc chimera (human) (UniProt P14784).
The target in experiment [2] is heterodimeric IL-2Rαβ (human IL-2Rα-Fc chimera and human IL-2Rβ-Fc chimera captured together) (human) (UniProt P01589).
For experiment [3], the target named is human IL-2Rα-Fc chimera (human) (UniProt P01589).

Sequence of UniProt P14784 (P14784 27-240, change not shown): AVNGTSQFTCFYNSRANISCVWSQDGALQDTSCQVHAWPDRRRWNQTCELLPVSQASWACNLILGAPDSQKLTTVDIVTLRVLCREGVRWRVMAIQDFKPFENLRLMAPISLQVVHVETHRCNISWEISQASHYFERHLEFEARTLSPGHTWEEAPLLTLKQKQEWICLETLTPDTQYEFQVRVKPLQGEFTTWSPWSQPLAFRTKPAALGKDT

Turning to “NKTR-358, a PEGylated form of rhIL-2 (aldesleukin sequence) (from UniProt P60568 21-153) (ligand)”, the Kd (commonly the constant that tells how readily two partners part at equilibrium) in experiment [1] worked out at 88 µM; in experiment [2], 1700 nM; in experiment [3] it was 7.3 µM.

Source of the values: paper PMC8141531.
